System: Escherichia coli TOP10
Experiment: shrunken log2 fold change of peptide-encoding DNA abundance (4.5 h post-induction vs induction); higher = less antimicrobial activity (less host growth inhibition)
Conditions: time post-induction: 4.5 h; library: site-saturation at positions 5, 18, 19, 20
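Also: peptides expressed intracellularly from a pBAD plasmid library in pooled LB shake-flask culture, induced with 0.3% L-arabinose, DNA abundance read by NGS, three biological replicates, DESeq2 with apeglm shrinkage.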

Row | Sequence | shrunken log2 fold change
1 | RRIRDRPPRLPRPRPRPAPSPRP | 0.367
2 | RRIRLRPPRLPRPRPRPDNTPRP | -0.386
3 | RRIRWRPPRLPRPRPRPMLPPRP | -0.0127
4 | RRIRTRPPRLPRPRPRPMRHPRP | 0.00372
5 | RRIRHRPPRLPRPRPRPSFQPRP | -0.652
6 | RRIRCRPPRLPRPRPRPMCCPRP | -0.038
7 | RRIRIRPPRLPRPRPRPHCEPRP | -1.54
8 | RRIRNRPPRLPRPRPRPTFRPRP | -0.22
9 | RRIRHRPPRLPRPRPRPPTDPRP | -0.254
10 | RRIRKRPPRLPRPRPRPITQPRP | -0.00651
11 | RRIRRRPPRLPRPRPRPQPLPRP | 0.509
12 | RRIRRRPPRLPRPRPRPLYYPRP | -0.259
13 | RRIRLRPPRLPRPRPRPGVGPRP | 0.537
14 | RRIRKRPPRLPRPRPRPSYRPRP | 0.0249
15 | RRIRCRPPRLPRPRPRPQWQPRP | 0.0413
16 | RRIRTRPPRLPRPRPRPYEFPRP | -0.202
17 | RRIRHRPPRLPRPRPRPFAYPRP | -0.0167
18 | RRIRGRPPRLPRPRPRPADDPRP | 0.563
19 | RRIRCRPPRLPRPRPRPLFCPRP | -0.442
20 | RRIRTRPPRLPRPRPRPDDNPRP | -0.195
21 | RRIRDRPPRLPRPRPRPYADPRP | -0.155
22 | RRIRFRPPRLPRPRPRPFQMPRP | -0.647
23 | RRIRGRPPRLPRPRPRPFLWPRP | 0.996
24 | RRIRKRPPRLPRPRPRPEVFPRP | 0.403
25 | RRIRHRPPRLPRPRPRPYIKPRP | -0.287

Row | Sequence | shrunken log2 fold change
26 | RRIRLRPPRLPRPRPRPTTRPRP | 0.34
27 | RRIRKRPPRLPRPRPRPSCMPRP | -0.0405
28 | RRIRPRPPRLPRPRPRPMKHPRP | 0.0348
29 | RRIRERPPRLPRPRPRPDNSPRP | -0.981
30 | RRIRHRPPRLPRPRPRPTFSPRP | -0.22
31 | RRIRTRPPRLPRPRPRPCNAPRP | -0.228
32 | RRIRMRPPRLPRPRPRPCNIPRP | 0.0653
33 | RRIRSRPPRLPRPRPRPHTRPRP | -0.453
34 | RRIRSRPPRLPRPRPRPCVIPRP | -0.172
35 | RRIRPRPPRLPRPRPRPCKYPRP | -0.499
36 | RRIRTRPPRLPRPRPRPRAFPRP | 0.184
37 | RRIRERPPRLPRPRPRPCHVPRP | -0.0775
38 | RRIRYRPPRLPRPRPRPDVFPRP | -0.0152
39 | RRIRERPPRLPRPRPRPIVQPRP | -0.311
40 | RRIRKRPPRLPRPRPRPEPIPRP | -0.0204
41 | RRIRKRPPRLPRPRPRPFIDPRP | 0.0226
42 | RRIRTRPPRLPRPRPRPTQPPRP | 0.176
43 | RRIRPRPPRLPRPRPRPRGNPRP | -0.16
44 | RRIRRRPPRLPRPRPRPDVNPRP | 0.0369
45 | RRIRQRPPRLPRPRPRPFKCPRP | 0.00905
46 | RRIRVRPPRLPRPRPRPMWFPRP | -0.0469
47 | RRIRKRPPRLPRPRPRPGCTPRP | 0.517
48 | RRIRARPPRLPRPRPRPWWKPRP | -0.00149
49 | RRIRMRPPRLPRPRPRPKPMPRP | 1.14
50 | RRIRERPPRLPRPRPRPVNLPRP | -0.441

Row | Sequence | shrunken log2 fold change
51 | RRIRQRPPRLPRPRPRPSLIPRP | -0.275
52 | RRIRSRPPRLPRPRPRPSHYPRP | -1.44
53 | RRIRARPPRLPRPRPRPQCQPRP | 0.457
54 | RRIRNRPPRLPRPRPRPKQDPRP | -0.0415
55 | RRIRSRPPRLPRPRPRPNYSPRP | -0.401
56 | RRIRCRPPRLPRPRPRPTYLPRP | -0.292
57 | RRIRNRPPRLPRPRPRPGEQPRP | 0.137
58 | RRIRQRPPRLPRPRPRPQECPRP | -0.00962
59 | RRIRGRPPRLPRPRPRPEMMPRP | 1.3
60 | RRIRCRPPRLPRPRPRPAKYPRP | -0.299
61 | RRIRFRPPRLPRPRPRPKTSPRP | -0.0999
62 | RRIRRRPPRLPRPRPRPQWAPRP | 0.0248
63 | RRIRARPPRLPRPRPRPFIHPRP | -0.45
64 | RRIRWRPPRLPRPRPRPKDVPRP | -0.0454
65 | RRIRPRPPRLPRPRPRPCGCPRP | 0.098
66 | RRIRFRPPRLPRPRPRPHYWPRP | -0.505
67 | RRIRKRPPRLPRPRPRPKIWPRP | 0.475
68 | RRIRFRPPRLPRPRPRPITPPRP | -0.128
69 | RRIRRRPPRLPRPRPRPGVNPRP | -0.271
70 | RRIRGRPPRLPRPRPRPQSSPRP | 0.000815
71 | RRIRERPPRLPRPRPRPNTWPRP | 0.0226
72 | RRIRKRPPRLPRPRPRPEGPPRP | 0.447
73 | RRIRLRPPRLPRPRPRPSDMPRP | -0.18
74 | RRIRTRPPRLPRPRPRPAQCPRP | 0.18
75 | RRIRLRPPRLPRPRPRPLMTPRP | -0.344

Row | Sequence | shrunken log2 fold change
76 | RRIRGRPPRLPRPRPRPWLQPRP | 0.201
77 | RRIRTRPPRLPRPRPRPCGFPRP | 0.268
78 | RRIRPRPPRLPRPRPRPNMFPRP | -0.254
79 | RRIRARPPRLPRPRPRPSMAPRP | 0.333
80 | RRIRGRPPRLPRPRPRPMNYPRP | 0.00834
81 | RRIRTRPPRLPRPRPRPPMCPRP | 0.0176
82 | RRIRCRPPRLPRPRPRPGDIPRP | 0.161
83 | RRIRFRPPRLPRPRPRPNDEPRP | -0.648
84 | RRIRDRPPRLPRPRPRPKERPRP | -0.0193
85 | RRIRHRPPRLPRPRPRPLDTPRP | 0.0608
86 | RRIRMRPPRLPRPRPRPCCHPRP | 0.0146
87 | RRIRSRPPRLPRPRPRPMNDPRP | -0.075
88 | RRIRFRPPRLPRPRPRPDISPRP | -0.216
89 | RRIRNRPPRLPRPRPRPWGWPRP | 0.242
90 | RRIRMRPPRLPRPRPRPFIDPRP | -0.438
91 | RRIRERPPRLPRPRPRPPLMPRP | 0.0142
92 | RRIRMRPPRLPRPRPRPSRWPRP | 1
93 | RRIRTRPPRLPRPRPRPYTMPRP | -0.232
94 | RRIRSRPPRLPRPRPRPDLSPRP | 0.101
95 | RRIRHRPPRLPRPRPRPYFHPRP | -0.955
96 | RRIRPRPPRLPRPRPRPTAMPRP | 0.0577
97 | RRIRFRPPRLPRPRPRPDGLPRP | 0.00785
98 | RRIRVRPPRLPRPRPRPEYPPRP | -0.322
99 | RRIRIRPPRLPRPRPRPYQRPRP | -0.12
100 | RRIRRRPPRLPRPRPRPWSSPRP | 0.0446

Row | Sequence | shrunken log2 fold change
101 | RRIRKRPPRLPRPRPRPRQDPRP | -0.0954
102 | RRIRERPPRLPRPRPRPAIKPRP | -0.656
103 | RRIRRRPPRLPRPRPRPFFPPRP | 0.263
104 | RRIRQRPPRLPRPRPRPDKQPRP | 0.0312
105 | RRIRPRPPRLPRPRPRPGGVPRP | 0.567
106 | RRIRYRPPRLPRPRPRPPCTPRP | -0.33
107 | RRIRWRPPRLPRPRPRPADPPRP | 0.372
108 | RRIRIRPPRLPRPRPRPCTNPRP | -0.0668
109 | RRIRVRPPRLPRPRPRPYTYPRP | 0.128
110 | RRIRSRPPRLPRPRPRPFEQPRP | -0.0212
111 | RRIRGRPPRLPRPRPRPHECPRP | 0.504
112 | RRIRTRPPRLPRPRPRPMPSPRP | -0.128
113 | RRIRKRPPRLPRPRPRPVQIPRP | 0.13
114 | RRIRKRPPRLPRPRPRPGALPRP | 0.656
115 | RRIRWRPPRLPRPRPRPRQIPRP | 0.459
116 | RRIRFRPPRLPRPRPRPFGPPRP | -0.159
117 | RRIRDRPPRLPRPRPRPMVGPRP | 0.564
118 | RRIRNRPPRLPRPRPRPGWPPRP | 0.541
119 | RRIRRRPPRLPRPRPRPIKGPRP | 0.174
120 | RRIRRRPPRLPRPRPRPSPMPRP | 1.54
121 | RRIRGRPPRLPRPRPRPWYVPRP | -2.24
122 | RRIRARPPRLPRPRPRPRAYPRP | 0.178
123 | RRIRQRPPRLPRPRPRPNADPRP | 0.00101
124 | RRIRHRPPRLPRPRPRPHGWPRP | 0.0177
125 | RRIRVRPPRLPRPRPRPIEEPRP | -0.181

Row | Sequence | shrunken log2 fold change
126 | RRIRERPPRLPRPRPRPRFDPRP | 1.26
127 | RRIRSRPPRLPRPRPRPATCPRP | -0.154
128 | RRIRRRPPRLPRPRPRPITFPRP | 0.058
129 | RRIRTRPPRLPRPRPRPWMMPRP | 0.0505
130 | RRIRMRPPRLPRPRPRPENPPRP | 2.79
131 | RRIRGRPPRLPRPRPRPKFHPRP | 0.199
132 | RRIRNRPPRLPRPRPRPIDSPRP | -0.0173
133 | RRIRMRPPRLPRPRPRPQTMPRP | 0.276
134 | RRIRERPPRLPRPRPRPCPWPRP | -0.278
135 | RRIRMRPPRLPRPRPRPQKSPRP | 0.167
136 | RRIRVRPPRLPRPRPRPNLSPRP | -0.444
137 | RRIRNRPPRLPRPRPRPCMYPRP | -0.0592
138 | RRIRCRPPRLPRPRPRPQTGPRP | -0.144
139 | RRIRTRPPRLPRPRPRPWDDPRP | 0.033
140 | RRIRNRPPRLPRPRPRPGLSPRP | 0.486
141 | RRIRRRPPRLPRPRPRPMPDPRP | 0.442
142 | RRIRWRPPRLPRPRPRPGTQPRP | 0.216
143 | RRIRIRPPRLPRPRPRPEWPPRP | 0.0836
144 | RRIRMRPPRLPRPRPRPQWNPRP | -0.149
145 | RRIRKRPPRLPRPRPRPVRPPRP | 1.28
146 | RRIRDRPPRLPRPRPRPPINPRP | -0.205
147 | RRIRIRPPRLPRPRPRPMFFPRP | -0.534
148 | RRIRQRPPRLPRPRPRPCSTPRP | 0.0062
149 | RRIRRRPPRLPRPRPRPSWIPRP | -0.284
150 | RRIRMRPPRLPRPRPRPMQSPRP | 0.886
